Residue numbers refer to the chain shown, from its start. Names and notes keep the numbering of the source. Values joined by “and” are separate entries in the source; they are usually repeats but may differ in a detail not shown here. Equal values may be shown once.
T1: Taf14ET (Taf14_(174–244)) (Saccharomyces cerevisiae, UniProt P35189 174-244)
T1 chain: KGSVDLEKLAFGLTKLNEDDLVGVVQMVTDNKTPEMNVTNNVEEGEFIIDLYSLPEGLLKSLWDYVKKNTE

T2: Taf14ET F220A (Saccharomyces cerevisiae)
T2 chain: T1 chain with F47A

T3: Taf14ET (Taf14_(174–244)) (Saccharomyces cerevisiae), P35189
T3 chain: T1 chain

T4: Sth1_(1183–1359) (Saccharomyces cerevisiae, UniProt P32597 1183-1359)
T4 construct: source: E. coli Rosetta, purified
T4 sequence (looked up): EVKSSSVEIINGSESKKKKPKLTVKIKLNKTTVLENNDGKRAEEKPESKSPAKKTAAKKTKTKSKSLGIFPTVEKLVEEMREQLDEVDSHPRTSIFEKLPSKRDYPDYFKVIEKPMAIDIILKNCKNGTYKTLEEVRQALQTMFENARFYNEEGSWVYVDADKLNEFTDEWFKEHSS

B1: Sth1EBM (Sth1_(1183–1240)) (domain or fragment, Saccharomyces cerevisiae, UniProt P32597 1183-1240, looked up)
chain: EVKSSSVEIINGSESKKKKPKLTVKIKLNKTTVLENNDGKRAEEKPESKSPAKKTAAK
notes: source: E. coli Rosetta, purified (Ni-NTA, on-beads digestion, SEC)
B2: Sth1EBM V1206A (domain or fragment, Saccharomyces cerevisiae, UniProt P32597 1183-1240, looked up)
chain: B1 chain with V24A
notes: source: E. coli Rosetta, purified (same protocol as the wild type)
B3: Sth1EBM K1207E (domain or fragment, Saccharomyces cerevisiae, UniProt P32597 1183-1240, looked up)
chain: B1 chain with K25E
notes: as for B2
B4: Sth1EBM I1208A (domain or fragment, Saccharomyces cerevisiae, UniProt P32597 1183-1240, looked up)
chain: B1 chain with I26A
notes: also called Sth1^I1208A; source: E. coli Rosetta, purified (same protocol as the wild type)
B5: Sth1EBM L1210A (domain or fragment, Saccharomyces cerevisiae, UniProt P32597 1183-1240, looked up)
chain: B1 chain with L28A
notes: as for B2
B6: Sth1EBM K1209E (domain or fragment, Saccharomyces cerevisiae, UniProt P32597 1183-1240, looked up)
chain: B1 chain with K27E
notes: as for B2
B7: Sth1EBM L1204A (domain or fragment, Saccharomyces cerevisiae, UniProt P32597 1183-1240, looked up)
chain: B1 chain with L22A
notes: as for B2
B8: Tfg1 motif from 613 to 628 (peptide, UniProt P41895 613-628, looked up)
peptide: IKNCVIILKGDKKILK
notes: Tfg1, Saccharomyces cerevisiae, first motif, residues 613-628
B9: Ino80_(368–390) (peptide, UniProt P53115 368-390, looked up)
peptide: DSKLNIKITLKQYHVKRLKKLIN
notes: Ino80, Saccharomyces cerevisiae, residues 368-390; also called Ino80EBM; source: synthetic peptide (Scilight-Peptide and GenScript) for NMR
B10: Sas3_(111–129) (peptide, UniProt P34218 111-129, looked up)
peptide: SEELKVRIKYDSIKFFNFE
notes: Sas3, Saccharomyces cerevisiae, residues 111-129; source: synthetic peptide (Scilight-Peptide and GenScript) for NMR
B11: Tfg1 motif from 685 to 700 (peptide, UniProt P41895 685-700, looked up)
peptide: EAIGDGKVNIKEFGKF
notes: Tfg1, Saccharomyces cerevisiae, second motif, residues 685-700
B12: Snf5_(771–800) (peptide, UniProt P18480 771-800, looked up)
peptide: SPPCYIIDHIPGHSLLLSIKLPGKVNTKEE
notes: also called Snf5EBM; source: synthetic peptide (Scilight-Peptide and GenScript) for NMR
B13: Taf2_(1393–1406) (peptide, UniProt P23255 1393-1406, looked up)
peptide: RSFMVKIRTKNDAK
notes: Taf2, Saccharomyces cerevisiae, residues 1393-1406; source: synthetic peptide (Scilight-Peptide and GenScript) for NMR
B14: Taf14ET (Taf14_(174–244)) (domain or fragment, Saccharomyces cerevisiae, UniProt P35189 174-244, looked up)
chain: T1 chain
notes: Taf14, Saccharomyces cerevisiae, ET domain, residues 174-244; 15N- or 15N/13C-labelled for NMR; also called Taf14 ET domain; 15N-Taf14ET; source: E. coli Rosetta, purified (Ni-NTA, on-beads digestion, SEC)
B15: GST-Taf14_(174–244) (domain or fragment, Saccharomyces cerevisiae, UniProt P35189 174-244, looked up)
chain: T1 chain
notes: Taf14, Saccharomyces cerevisiae, ET domain, residues 174-244; also called GST-Taf14ET; GST-tagged Taf14ET; source: E. coli Rosetta, purified (Ni-NTA, eluted as GST-fused protein, SEC); not shown: 6*His-GST, N-terminal, kept
B16: Tfg1 fragment containing both motifs (domain or fragment)
chain: DTLSKSKRSSPKKQQKKATNAHVHKEPTLRVKSIKNCVIILKGDKKILKSFPEGEWNPQTTKAVDSSNNASNTVPSPIKQEEGLNSTVAEREETPAPTITEKDIIEAIGDGKVNIKEFGKFIRRKYPGAENKKLMFAIVKKLCRKVGNDHMELKKE

How the values were obtained:
[1] = target: B14; assay: ITC; peptide at 1.0 mM in the syringe titrated into Taf14ET at 0.1 mM in the cell; 20 mM phosphate pH 7.0, 100 mM NaCl, 2 mM DTT; 25 °C; one binding site model; details: both partners purified
[2] = target: T1, Taf14ET (Taf14_(174–244)); assay: ITC
Taf14ET F220A = target: T2, Taf14ET F220A; assay: ITC
Taf14ET F220R = Taf14ET F220R (Saccharomyces cerevisiae, UniProt P35189 174-244, F220R); assay: ITC
Taf14ET I222R = Taf14ET I222R (Saccharomyces cerevisiae, UniProt P35189 174-244, I222R); assay: ITC
[3] = target: T1, Taf14ET (Taf14_(174–244)); assay: ITC
[4] = target: T3, Taf14ET (Taf14_(174–244)) …; assay: ITC; details: modification not given
[5] = target: T1, Taf14ET (Taf14_(174–244)); assay: ITC
GST-Taf14_(174–244) = target: B15; assay: pull-down; GST-tagged ET domain (25 μg) and binding partner (50 μg) with glutathione–Sepharose 4B beads; 25 mM Tris-HCl pH 8.0, 150 mM NaCl, 2 mM DTT; 4 °C, 3 h; SDS-PAGE; details: both partners purified
[6] = target: the molecule itself; assay: 15N-1H HSQC at several concentrations; apo 15N-Taf14ET at 0.05, 0.1, 0.2 and 0.5 mM
Sth1EBM L1204A = Sth1EBM L1204A (Saccharomyces cerevisiae, UniProt P32597 1183-1240, L1204A); assay: ITC
Sth1EBM V1206A = Sth1EBM V1206A (Saccharomyces cerevisiae, UniProt P32597 1183-1240, V1206A); assay: ITC
Sth1EBM K1209E = Sth1EBM K1209E (Saccharomyces cerevisiae, UniProt P32597 1183-1240, K1209E); assay: ITC
Sth1EBM I1208A = Sth1EBM I1208A (Saccharomyces cerevisiae, UniProt P32597 1183-1240, I1208A); assay: ITC
Sth1EBM L1210A = Sth1EBM L1210A (Saccharomyces cerevisiae, UniProt P32597 1183-1240, L1210A); assay: ITC
Sth1EBM K1207E = Sth1EBM K1207E (Saccharomyces cerevisiae, UniProt P32597 1183-1240, K1207E); assay: ITC
Sth1_(1183–1359) = target: T4, Sth1_(1183–1359); assay: pull-down; GST-tagged ET domain (25 μg) and binding partner (50 μg) with glutathione–Sepharose 4B beads; 25 mM Tris-HCl pH 8.0, 150 mM NaCl, 2 mM DTT; 4 °C, 3 h; SDS-PAGE; details: both partners purified

## B1
[1]
  Kd: ~0.055 µM
[2]
  Kd: 0.372 µM and 0.194 µM
Taf14ET F220A
  Kd: 0.68 µM
Taf14ET F220R
  Kd: 3.5 µM
Taf14ET I222R
  Kd: 54.6 µM
[3]
  Kd: 0.05 µM

## B2
[1]
  binding result: binds

## B3
[1]
  fold increase of KD against wild-type Sth1EBM: 154 fold

## B4
[1]
  fold increase of KD against wild-type Sth1EBM: 270 fold

## B5
[1]
  binding result: binds

## B6
[1]
  fold increase of KD against wild-type Sth1EBM: 79 fold

## B7
[1]
  binding result: binds

## B8
[1]
  Kd: ~17 µM

## SPPCYIIDHIPGHSLLLSAKLPGKVNTKEE [Snf5EBM I789A]
[4]
  Kd: 189 µM

## SPPCYIIDHIPGHSLLASIKLPGKVNTKEE [Snf5EBM L787A]
[4]
  Kd: 41.5 µM

## B9
[5]
  Kd: 0.25 µM
[1]
  binding result: binds

## KKKPKLTVKIKLNKTTVLENNDGKRAE (domain or fragment, Saccharomyces cerevisiae, UniProt P32597 1199-1225, looked up, source: E. coli Rosetta, purified) [Sth1_(1199–1225)]
GST-Taf14_(174–244)
  binding result: binds

## B10
[5]
  Kd: 31.3 µM
[1]
  binding result: binds

## B11
[1]
  Kd: ~9 µM

## B12
[5]
  Kd: 2.48 µM
[1]
  binding result: binds

## B13
[5]
  Kd: 0.8 µM
[1]
  binding result: binds

## B14
[6]
  binding result: binds
Sth1EBM L1204A
  Kd: 2.06 µM
Sth1EBM V1206A
  Kd: 2.04 µM
Sth1EBM K1209E
  Kd: 7.69 µM and 3.94 µM
Sth1EBM I1208A
  Kd: 13.4 µM
Sth1EBM L1210A
  Kd: 1.14 µM
Sth1EBM K1207E
  Kd: 3.94 µM and 7.69 µM

## B15
Sth1_(1183–1359)
  binding result: binds

## DSKLNIKITAKQYHVKRLKKLIN [Ino80EBM L377A]
[4]
  Kd: 3.87 µM

## B16
[1]
  Kd: ~0.33 µM

## DSKLNAKITLKQYHVKRLKKLIN [Ino80EBM I373A]
[4]
  Kd: 3.86 µM

From PMC7442819, “Taf14 recognizes a common motif in transcriptional machineries and facilitates their clustering by phase separation” (Nature Communications, 2020)
